Consider one molecule from article PMC4949121 (Inorganic chemistry, 2016).

Data set [1] can be described thus: in vivo. The settings on record: female, C57BL/6, mouse, iv, total radioactivity.
The test system of data set [2] is C57BL/6 mice bearing B16F10 xenografts.
Data set [3] in a line: in vivo. The following applies: female, C57BL/6, mouse, tumor and muscle, iv, total radioactivity.
Data set [4] deals with VLA-4-overexpressing B16F10 mouse melanoma cells. In words: Cell internalization assay. Type of data set: cell-based. The settings on record: 10 pmol per well.

Consider `Cc1ccccc1NC(=O)Nc1ccc(CC(=O)N[C@@H](CCCCNC(=O)/C=C/c2cccnc2)C(=O)N[C@@H](CCCC(=O)O)C(=O)NC2(C(=O)NCCOCCOCCOCCOCC(=O)N[C@@H](CCCCNC(=S)Nc3ccc(CCCN(CCN4CCN(CC(=O)O)CCN(CC(=O)O)CC4)CC(=O)O)cc3)C(N)=O)CCCCC2)cc1` [^64Cu-NE3TA-PEG4-LLP2A, metal not drawn], for which the tissue to tissue ratio at 4 h in “in vivo [1]” (tumor and blood) is 16.8 ± 1.8. Further, the tissue to tissue ratio at 24 h in “in vivo [1]” (tumor and muscle) was 25.2 ± 7.8. Besides, the “liver and kidney uptake” value in data set [2] (biodistribution) is “relatively low”. The “uptake in tumor, spleen, bone, lung, and thymus with blocking” value in data set [2] (coinjection of excess unlabeled LLP2A-PEG4 (100 μg)) is on record as “significantly reduced”. In addition, in the data set “in vivo [3]”, the tissue to tissue ratio at 2 h is 13.1 ± 2.4 and the tissue to tissue ratio at 4 h is 30.9 ± 0.7. For the same molecule, the “time at which internalization became saturated” value in data set [4] (time points 15 min, 1 h, 2 h, 4 h) is on record as ~ 2 h. Also, in data set [4] (up to 4 h, blocking with unlabeled LLP2A-PEG4 10 μg per well), the “specific internalization (total minus blocked)” value is on record as “High specific internalization”.
